From PMC9568614 (2022)

What was measured:
[1] = target: T1, recombinant human FcRn (FcRn alpha-chain with C-terminal BirA 10x-Histidine tag, with beta-2-microglobulin) (human, UniProt P55899 24-297; P61769 21-119); assay: SPR; pH 7.4
[2] = target: T1, recombinant human FcRn (FcRn …); assay: SPR; pH 6.0

Kd [1]: 1220 nM | Kd [2]: 33 nM
B1: Fc-MST-HN (IgG1 Fc fragment with M252Y, S254T, T256E, H433K, N434F) (domain or fragment)
chain: DKTHTCPPCPAPELLGGPSVFLFPPKPKDTLYITREPEVTCVVVDVSHEDPEVKFNWYVDGVEVHNAKTKPREEQYNSTYRVVSVLTVLHQDWLNGKEYKCKVSNKALPAPIEKTISKAKGQPREPQVYTLPPSRDELTKNQVSLTCLVKGFYPSDIAVEWESNGQPENNYKTTPPVLDSDGSFFLYSKLTVDKSRWQQGNVFSCSVMHEALKFHYTQKSLSLSP
